Assay results published in article PMC11063116.

Substrate: NCCCN
Test: purified protein
Settings: 2 mM putrescine, 0.6 mM NAD+, 100 mM Tris-HCl pH 9, 50 °C

| Protein | Km [µM] | kcat [s⁻¹] | kcat/Km [M⁻¹ s⁻¹] |
| --- | --- | --- | --- |
| BvHSS (homospermidine synthase) (Blastochloris viridis) (protein) MTDWPVYHRIDGPIVMIGFGSIGRGTLPLIERHFAFDRSKLVVIDPSDEARKLAEARGVRFIQQAVTRDNYRELLVPLLTAGPGQGFCVNLSVDTSSLDIMELARENGALYIDTVVEPWLGFYFDPDLKPEARSNYALRETVLAARRNKPGGTTAVSCCGANPGMVSWFVKQALVNLAADLGVTGEEPTTREEWARLAMDLGVKGIHIAERDTQRASFPKPFDVFVNTWSVEGFVSEGLQPAELGWGTFERWMPDNARGHDSGCGAGIYLLQPGANTRVRSWTPTAMAQYGFLVTHNESISIADFLTVRDAAGQAVYRPTCHYAYHPCNDAVLSLHEMFGSGKRQSDWRILDETEIVDGIDELGVLLYGHGKNAYWYGSQLSIEETRRIAPDQNATGLQVSSAVLAGMVWALENPNAGIVEADDLDFRRCLEVQTPYLGPVVGVYTDWTPLAGRPGLFPEDIDTSDPWQFRNVLVRD | 490 ± 30 | 13.6 | 27800 |
| BvHSS (homospermidine synthase) (Blastochloris viridis; D361E/E232D) (protein) MTDWPVYHRIDGPIVMIGFGSIGRGTLPLIERHFAFDRSKLVVIDPSDEARKLAEARGVRFIQQAVTRDNYRELLVPLLTAGPGQGFCVNLSVDTSSLDIMELARENGALYIDTVVEPWLGFYFDPDLKPEARSNYALRETVLAARRNKPGGTTAVSCCGANPGMVSWFVKQALVNLAADLGVTGEEPTTREEWARLAMDLGVKGIHIAERDTQRASFPKPFDVFVNTWSVDGFVSEGLQPAELGWGTFERWMPDNARGHDSGCGAGIYLLQPGANTRVRSWTPTAMAQYGFLVTHNESISIADFLTVRDAAGQAVYRPTCHYAYHPCNDAVLSLHEMFGSGKRQSDWRILDETEIVDGIEELGVLLYGHGKNAYWYGSQLSIEETRRIAPDQNATGLQVSSAVLAGMVWALENPNAGIVEADDLDFRRCLEVQTPYLGPVVGVYTDWTPLAGRPGLFPEDIDTSDPWQFRNVLVRD | 310 ± 20 | 21.1 | 68000 |
| BvHSS (homospermidine synthase) (Blastochloris viridis; D361E) (protein) MTDWPVYHRIDGPIVMIGFGSIGRGTLPLIERHFAFDRSKLVVIDPSDEARKLAEARGVRFIQQAVTRDNYRELLVPLLTAGPGQGFCVNLSVDTSSLDIMELARENGALYIDTVVEPWLGFYFDPDLKPEARSNYALRETVLAARRNKPGGTTAVSCCGANPGMVSWFVKQALVNLAADLGVTGEEPTTREEWARLAMDLGVKGIHIAERDTQRASFPKPFDVFVNTWSVEGFVSEGLQPAELGWGTFERWMPDNARGHDSGCGAGIYLLQPGANTRVRSWTPTAMAQYGFLVTHNESISIADFLTVRDAAGQAVYRPTCHYAYHPCNDAVLSLHEMFGSGKRQSDWRILDETEIVDGIEELGVLLYGHGKNAYWYGSQLSIEETRRIAPDQNATGLQVSSAVLAGMVWALENPNAGIVEADDLDFRRCLEVQTPYLGPVVGVYTDWTPLAGRPGLFPEDIDTSDPWQFRNVLVRD | 430 ± 60 | 19.3 | 45000 |
